Measurements reported in patent US20210115100A1.

Experiments:
Test in all cases: cell-based or functional assay
[1] = molecular target: wild type human mature BMP7 (SEQ ID NO: 2) (human) (UniProt P18075)
[2] = molecular target: human pro-BMP7 protein variant F9 (human) (UniProt P18075)
[3] = molecular target: wild type human pro-BMP7 (human) (UniProt P18075)
[4] = molecular target: human mature BMP7 protein variant F9 (SEQ ID NO: 8) (human) (UniProt P18075)
Chain of human mature BMP7 protein variant F9 (SEQ ID NO: 8) (human) (P18075 other isoform, or with tags, fused parts or gaps mutant): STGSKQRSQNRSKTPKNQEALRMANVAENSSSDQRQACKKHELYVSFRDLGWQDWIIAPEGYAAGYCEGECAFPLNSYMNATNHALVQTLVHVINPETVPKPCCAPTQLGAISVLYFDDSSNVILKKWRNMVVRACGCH

Chain of human pro-BMP7 protein variant F9 (human) (P18075 other isoform, or with tags, fused parts or gaps mutant, chain 1 of 2): as the sequence (P18075 other isoform, or with tags, fused parts or gaps mutant) above
Chain of human pro-BMP7 protein variant F9 (human) (P18075 other isoform, or with tags, fused parts or gaps mutant, chain 2 of 2): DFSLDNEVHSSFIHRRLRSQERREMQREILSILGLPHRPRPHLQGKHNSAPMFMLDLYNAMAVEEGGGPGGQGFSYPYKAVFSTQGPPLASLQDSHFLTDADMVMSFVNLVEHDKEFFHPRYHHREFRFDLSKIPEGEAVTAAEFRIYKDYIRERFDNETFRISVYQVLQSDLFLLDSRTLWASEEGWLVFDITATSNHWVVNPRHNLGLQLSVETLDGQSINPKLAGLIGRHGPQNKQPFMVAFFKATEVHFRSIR
Chain of wild type human mature BMP7 (SEQ ID NO: 2) (human) (P18075 293-431): as the sequence (P18075 other isoform, or with tags, fused parts or gaps mutant) above, with G65Y, L86I, V93F, G110N, W128Y counted along it
Chain of wild type human pro-BMP7 (human) (P18075 293-431, chain 1 of 2): as the sequence (P18075 other isoform, or with tags, fused parts or gaps mutant) above, with G65Y, L86I, V93F, G110N, W128Y counted along it
Chain of wild type human pro-BMP7 (human) (P18075 other isoform, or with tags, fused parts or gaps, chain 2 of 2): as the sequence (P18075 other isoform, or with tags, fused parts or gaps mutant, chain 2 of 2) above

Row | % inhibition, 0.1X molar excess of inhibitor (hepcidin promoter luciferase, Hep3B2 HepPro luc cells) [1] | % inhibition, 1X molar excess of inhibitor (hepcidin promoter luciferase, Hep3B2 HepPro luc cells) [1] | % inhibition, 10X molar excess of inhibitor (hepcidin promoter luciferase, Hep3B2 HepPro luc cells) [1] | % inhibition, 100X molar excess of inhibitor (hepcidin promoter luciferase, Hep3B2 HepPro luc cells) [1] | % inhibition, 0.1X molar excess of inhibitor (hepcidin promoter luciferase, Hep3B2 HepPro luc cells) [2] | % inhibition, 1X molar excess of inhibitor (hepcidin promoter luciferase, Hep3B2 HepPro luc cells) [2] | % inhibition, 10X molar excess of inhibitor (hepcidin promoter luciferase, Hep3B2 HepPro luc cells) [2] | % inhibition, 100X molar excess of inhibitor (hepcidin promoter luciferase, Hep3B2 HepPro luc cells) [2] | % inhibition, 0.1X molar excess of inhibitor (hepcidin promoter luciferase, Hep3B2 HepPro luc cells) [3] | % inhibition, 1X molar excess of inhibitor (hepcidin promoter luciferase, Hep3B2 HepPro luc cells) [3] | % inhibition, 10X molar excess of inhibitor (hepcidin promoter luciferase, Hep3B2 HepPro luc cells) [3] | % inhibition, 100X molar excess of inhibitor (hepcidin promoter luciferase, Hep3B2 HepPro luc cells) [3] | % inhibition, 0.01X molar excess of inhibitor (hepcidin promoter luciferase, Hep3B2 HepPro luc cells) [4] | % inhibition, 0.1X molar excess of inhibitor (hepcidin promoter luciferase, Hep3B2 HepPro luc cells) [4] | % inhibition, 1X molar excess of inhibitor (hepcidin promoter luciferase, Hep3B2 HepPro luc cells) [4] | % inhibition, 10X molar excess of inhibitor (hepcidin promoter luciferase, Hep3B2 HepPro luc cells) [4] | Binder
1 | -12.2% | 36.7% | 72.8% | 73.7% | -15.2% | -18.3% | -23.6% | -28.1% | -5.3% | 24.8% | 84.8% | 87.3% | -2.6% | -7.2% | -6.9% | -1.2% | Noggin (protein, UniProt Q13253 28-232, looked up, species assumed) Noggin: QHYLHIRPAPSDNLPLVDLIEHPDPIFDPKEKDLNETLLRSLLGGHYDPGFMATSPPEDRPGGGGGAAGGAEDLAELDQLLRQRPSGAMPSEIKGLEFSEGLAQGKKQRLSKKLRRKLQMWLWSQTFCPVLYAWNDLGSRFWPRYVKVGSCFSKRSCSVPEGMVCKPSKSVHLTVLRWRCQRRGGQRCGWIPIQYPIISECKCSC
2 | -23.6% | -25.9% | 37.6% | 77.4% | -35.4% | -27.5% | 7% |  | -10.2% | 4% | 17.4% | 81.6% | 2.3% | 7% | 7.3% | 28.5% | Coco (protein, UniProt Q8N907 23-189, looked up, species assumed) DAN domain family member 5: RPEPQSPRPQSWAAANQTWALGPGALPPLVPASALGSWKAFLGLQKARQLGMGRLQRGQDEVAAVTLPLNPQEVIQGMCKAVPFVQVFSRPGCSAIRLRNHLCFGHCSSLYIPGSDPTPLVLCNSCMPARKRWAPVVLWCLTGSSASRRRVKISTMLIEGCHCSPKA
